Test [1] has as its target T1, NY-ESO-1/LAGE-1 peptide on HLA-A*02 (human).
T1 peptide: SLLMWITQC
Nature of the test: cytokine release.

Test [2] addresses T2, PRAME peptide on HLA-A*02:01 (human).
T2 peptide: VLDGLDVLL
The test is described as follows: cytokine release.

Test [3] addresses T3, PRAME peptide on HLA-A*02:01 (human).
T3 peptide: SLLQHLIGL
Nature of the test: activation reporter or marker.

B1: NY-ESO TCR (TCR, V domains shown)
Valpha: QKEVEQNSGPLSVPEGAIASLNCTYSDRGSQSFFWYRQYSGKSPELIMFIYSNGDKEDGRFTAQLNKASQYVSLLIRDSQPSDSATYLCAADDKIIFGKGTRLHILP
Vbeta: DAGVIQSPRHEVTEMGQEVTLRCKPISGHDYLFWYRQTMMRGLELLIYFNNNVPIDDSGMPEDRFSAKMPNASFSTLKIQPSEPRDSAVYFCASSRGGSGYTFGSGTRLTVV
As to B1, the binding result in test [1] is given as “recognises”.

B2: PRAMEVLD-TCR (TCR, V domains shown)
Valpha: EDQVTQSPEALRLQEGESSSLNCSYTVSGLRGLFWYRQDPGKGPEFLFTLYSAGEEKEKERLKATLTKKESFLHITAPKPEDSATYLCAVHSTAQAGTALIFGKGTTLSVSS
Vbeta: DSGVTQTPKHLITATGQRVTLRCSPRSGDLSVYWYQQSLDQGLQFLIQYYNGEERAKGNILERFSAQQFPDLHSELNLSSLELGDSALYFCASSTHRGQTNYGYTFGSGTRLTVV
Turning to B2, the binding result is reported as “recognises” in test [2] and “no recognition” in test [3].

The values are drawn from US20250197848A1 (published 2025).
